Conditions in all cases: tags: 20 aa N-terminal tag incl; 6xHis (pET28)
Data set [1] concerns the target ZmSRTF18-del (ALT6) (Zea mays). As to the kind of experiment: EMSA; DTT, 300 mM KCl, sheared salmon DNA; strong specific binding. The protocol:
(§1) In gel-shift assays, also known as electrophoretic mobility shift assays (EMSA), DNA with bound protein will traverse the gel more slowly than DNA without bound protein. Thus, gel shift assays indicate whether a protein binds to a specific DNA fragment. The gel shift assays of FIG. 6 were performed using the Molecular Probes™ EMSA Kit (E33075), which provides background information, materials, and methods for gel shift experiments. The assays were done in the presence or in the absence of DTT (dithiothreitol), as it is not certain which condition most accurately reflects the in vivo condition. DNA was stained with SYBR® Green according to the manufacturer's protocol.
(§2) To determine whether DNA binding was specific, and to examine binding of the less severely truncated proteins ZmSRTF18-del (ALT5) (SEQ ID NO: 26) and ZmSRTF18-del (ALT6) (SEQ ID NO: 27), further gel shift experiments were performed in the presence of DTT with the same 34 bp DNA fragment, or with the corresponding fragment that had the DRE element ACCGAC mutated to TTTTTT. Conditions were also optimized to reduce nonspecific binding by adding 300 mM KCl and sheared salmon DNA.
(In EMSA bound probe runs differently from free probe, usually more slowly.)

Data set [2] has as its target ZmSRTF18-del (Zea mays). The data set can be described thus: EMSA; no DTT; did not appear to bind. On the procedure: as §1
The target of data set [3] is ZmSRTF18 (SPL VAR4) (C71S) (Zea mays, C71S). The data set can be described thus: EMSA; with or without DTT; strong and specific also with 300 mM KCl and salmon DNA. On the procedure: as §1, §2
Data set [4] concerns the target ZmSRTF18 (SPL VAR4) (Zea mays). The data set is described as above. On the procedure: as §1, §2
The target in data set [5] is ZmSRTF18-del (ALT2) (Zea mays). The data set can be described thus: EMSA; with or without DTT; obvious gel shift. On the procedure: as §1, §2
Data set [6] concerns the target ZmSRTF18-del (ALT6) (Zea mays). The data set can be described thus: EMSA; DTT, 300 mM KCl, salmon DNA; binding to DRE stated specific versus this mutant. The protocol: as §1, §2
Data set [7] deals with ZmSRTF18 (SPL VAR4) (C71S) (Zea mays, C71S). Described as above. The protocol: as §1, §2
Data set [8] addresses ZmSRTF18 (SPL VAR4) (Zea mays). The data set is described as above. On the procedure:
as §1, §2

ZmSRTF18 (SPL VAR4) (C71S) (Zea mays, C71S), sequence (chain, as listed by the source C71S | C71S C71S): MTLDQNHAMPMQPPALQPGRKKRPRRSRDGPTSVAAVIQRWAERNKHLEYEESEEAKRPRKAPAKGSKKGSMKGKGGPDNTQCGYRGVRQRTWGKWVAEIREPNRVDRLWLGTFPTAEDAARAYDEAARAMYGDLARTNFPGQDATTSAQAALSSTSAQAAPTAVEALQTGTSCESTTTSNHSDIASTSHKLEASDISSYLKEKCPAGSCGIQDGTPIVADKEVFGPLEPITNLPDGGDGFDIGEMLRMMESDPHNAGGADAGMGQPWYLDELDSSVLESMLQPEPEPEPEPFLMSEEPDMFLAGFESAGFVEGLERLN
ZmSRTF18-del (ALT6) (Zea mays), sequence (chain, as listed by the source): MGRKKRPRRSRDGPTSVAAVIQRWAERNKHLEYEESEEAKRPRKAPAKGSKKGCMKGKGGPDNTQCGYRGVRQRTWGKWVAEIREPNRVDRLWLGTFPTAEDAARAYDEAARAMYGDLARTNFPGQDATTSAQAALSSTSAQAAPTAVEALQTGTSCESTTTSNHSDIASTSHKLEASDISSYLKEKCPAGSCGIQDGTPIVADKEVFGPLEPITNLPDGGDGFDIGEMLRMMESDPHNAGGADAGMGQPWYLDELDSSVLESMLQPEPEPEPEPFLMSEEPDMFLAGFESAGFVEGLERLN
ZmSRTF18 (SPL VAR4) (Zea mays), sequence (chain, as listed by the source): as the sequence (chain, as listed by the source C71S | C71S C71S) above, with S71C counted along it
ZmSRTF18-del (ALT2) (Zea mays), sequence (chain, as listed by the source): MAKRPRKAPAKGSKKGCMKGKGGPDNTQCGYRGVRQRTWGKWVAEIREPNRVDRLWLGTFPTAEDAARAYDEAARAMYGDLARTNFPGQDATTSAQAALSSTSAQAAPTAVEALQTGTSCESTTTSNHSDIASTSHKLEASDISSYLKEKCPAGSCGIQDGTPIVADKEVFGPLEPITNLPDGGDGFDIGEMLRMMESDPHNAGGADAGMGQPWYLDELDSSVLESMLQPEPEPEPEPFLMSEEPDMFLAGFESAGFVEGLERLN
ZmSRTF18-del (Zea mays), sequence (chain, as listed by the source): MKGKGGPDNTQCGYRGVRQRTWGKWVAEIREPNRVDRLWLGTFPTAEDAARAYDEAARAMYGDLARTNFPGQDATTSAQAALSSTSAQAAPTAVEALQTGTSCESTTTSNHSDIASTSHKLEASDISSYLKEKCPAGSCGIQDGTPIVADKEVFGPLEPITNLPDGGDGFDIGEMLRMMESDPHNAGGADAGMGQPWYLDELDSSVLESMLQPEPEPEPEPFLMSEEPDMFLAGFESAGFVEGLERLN

B1: RAB17 promoter DRE fragment (dsDNA)
DNA 1: TAAATTCAGCCTGACCGACCGCCTGCATTGAATA
DNA 2: TATTCAATGCAGGCGGTCGGTCAGGCTGAATTTA
With B1, the binding result was “binds” in data set [1]; “no binding” in data set [2]; “binds” in data set [3]; “binds” in data set [4]; “binds” in data set [5].

B2: RAB17 DRE mutant fragment (dsDNA)
DNA 1: TAAATTCAGCCTGTTTTTTCGCCTGCATTGAATA
DNA 2: TATTCAATGCAGGCGAAAAAACAGGCTGAATTTA
For the molecule B2, the binding result in data set [6], in data set [7] and in data set [8] was “no binding” throughout.

(Values after patent US20160024513, “MAIZE STRESS RELATED TRANSCRIPTION FACTOR 18 AND USES THEREOF” (PIONEER HI-BRED INTERNATIONAL INC., published 2016).)
